Results on 14 variants are retold here after the supplement of paper PMC12338614.

± gives the uncertainty stated by the source.

To fix the notation:
B1: library; numbered along this chain (parent)
chain: MEVVDPQQLGMFTEGELMSVGMDTFIHRIDSTEVIYQPRRKRAKLIGKYLMGDLLGEGSYGKVKEVLDSETLCRRAVKILKKKKLRRIPNGEANVKKEIQLLRRLRHKNVIQLVDVLYNEEKQKMYMVMEYCVCGMQEMLDSVPEKRFPVCQAHGYFCQLIDGLEYLHSQGIVHKDIKPGNLLLTTGGTLKISDLGVAEALHPFAADDTCRTSQGSPAFQPPEIANGLDTFSGFKVDIWSAGVTLYNITTGLYPFEGDNIYKLFENIGKGSYAIPGDCGPPLSDLLKGMLEYEPAKRFSIRQIRQHSWFRKKHPPAEAPVPIPPSPDTKDRWRSMTVVPYLEDLHGADEDEDLFDIEDDIIYTQDFTVPGQVPEEEASHNGQRRGLPKAVCMNGTEAAQLSTKSRAEGRAPNPARKACSASSKIRRLSACKQQ

In the data set the parent is B1. Description: STK11 functional score (HeLa growth suppression), rescaled enrichment; synonymous median = 1, nonsense median = 0 (normalised score). To be noted: with HeLa; variant type: missense. The gist of the method:
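HeLa cells carrying an AAVS1 landing pad received codon-optimised STK11 libraries made by codon randomisation (POPCode), integrated by Bxb1, with three regions each transfected three times. Integrants that were BFP-negative and mCherry-positive were sorted by FACS 4–5 days after electroporation and then grown for about two weeks. Tiled amplicons from gDNA were sequenced on NextSeq at ~2 million reads per tile. The functional score is a wild-type-corrected log ratio of post- to pre-selection counts, rescaled to the synonymous and nonsense medians, merged across codons and replicate transfections, and given a bootstrapped error.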
As for MEVVDPQQLGMFTEGELMSVGMDTFIHRIDSTEVIYQPRRKRAKLIGKYLMGDLLGEGSYGKVKEVLDSETLCRRAVKILKKKKLRRIPNGEANVKKEIQLLRRLRHKNVIQLVDVLYNEEKQKMYMVMEYCVCGMQEMLDSVPEKRFPVCQAHGYFCQLIDGLEYLHSQGIVHKDIKPGNLLLTTGGTLKISDLGVAEALHPFAADDTCRTSQGSPAFQPPEIANGLDTFSGFKVDIWSAGVTLYNITTGLYPFEGDNIYKLFENIGKGSYAIPGDCGPPLSDLLKGMLEYEPAKRFSIRQIRQHSWFRKKHPPAEAPVPIPPSPDTKDRWRSMTVVPYLEDLHGADEDEDLFDIEDDIIYTQDFTVPGQVPEEEASHNGCRRGLPKAVCMNGTEAAQLSTKSRAEGRAPNPARKACSASSKIRRLSACKQQ [Q382C], the STK11 functional score worked out at 1.15 ± 0.19. For MEVVDPQQLGMFTEGELMSVGMDTFIHRIDSTEVIYQPRRKRAKLIGKYLMGDLLGEGSYGKVKEVLDSETLCRRAVKILKKKKLRRIPNGEANVKKEIQLLRRLRHKNVIQLVDVLYNEEKQKMYMVMEYCVCGMQEMLDSVPEKRFPVCQAHGYFCQLIDGLEYLHSQGIVHKDIKPGNLLLTTGGTLKISDLGVAEALHPFAADDTCRTSQGSPAFQPPEIANGLDTFSGFKVDIWSAGVTLYNITTGLYPFEGDNIYKLFENIGKGSYAIPGDCGPPLSDLLKGMLEYEPAKRFSIRQIRQHSWFRKKHPPAEAPVPIPPSPDTKDRWRSMTVVPYLEDLHGADEDEDLFDIEDDIIYTQDFTVPGQVPEEEASHNGARRGLPKAVCMNGTEAAQLSTKSRAEGRAPNPARKACSASSKIRRLSACKQQ [Q382A] the value was 1.38 ± 0.47.

For the variant MEVVDPQQLGMFTEGELMSVGMDTFIHRIDSTEVIYQPRRKRAKLIGKYLMGDLLGEGSYGKVKEVLDSETLCRRAVKILKKKKLRRIPNGEANVKKEIQLLRRLRHKNVIQLVDVLYNEEKQKMYMVMEYCVCGMQEMLDSVPEKRFPVCQAHGYFCQLIDGLEYLHSQGIVHKDIKPGNLLLTTGGTLKISDLGVAEALHPFAADDTCRTSQGSPAFQPPEIANGLDTFSGFKVDIWSAGVTLYNITTGLYPFEGDNIYKLFENIGKGSYAIPGDCGPPLSDLLKGMLEYEPAKRFSIRQIRQHSWFRKKHPPAEAPVPIPPSPDTKDRWRSMTVVPYLEDLHGADEDEDLFDIEDDIIYTQDFTVPGQVPEEEASHNLQRRGLPKAVCMNGTEAAQLSTKSRAEGRAPNPARKACSASSKIRRLSACKQQ [G381L], the STK11 functional score came out at 1.24 ± 0.15.

MEVVDPQQLGMFTEGELMSVGMDTFIHRIDSTEVIYQPRRKRAKLIGKYLMGDLLGEGSYGKVKEVLDSETLCRRAVKILKKKKLRRIPNGEANVKKEIQLLRRLRHKNVIQLVDVLYNEEKQKMYMVMEYCVCGMQEMLDSVPEKRFPVCQAHGYFCQLIDGLEYLHSQGIVHKDIKPGNLLLTTGGTLKISDLGVAEALHPFAADDTCRTSQGSPAFQPPEIANGLDTFSGFKVDIWSAGVTLYNITTGLYPFEGDNIYKLFENIGKGSYAIPGDCGPPLSDLLKGMLEYEPAKRFSIRQIRQHSWFRKKHPPAEAPVPIPPSPDTKDRWRSMTVVPYLEDLHGADEDEDLFDIEDDIIYTQDFTVPGQVPEEEASHNWQRRGLPKAVCMNGTEAAQLSTKSRAEGRAPNPARKACSASSKIRRLSACKQQ [G381W]: the STK11 functional score turned out to be 1.05 ± 0.74.

As for MEVVDPQQLGMFTEGELMSVGMDTFIHRIDSTEVIYQPRRKRAKLIGKYLMGDLLGEGSYGKVKEVLDSETLCRRAVKILKKKKLRRIPNGEANVKKEIQLLRRLRHKNVIQLVDVLYNEEKQKMYMVMEYCVCGMQEMLDSVPEKRFPVCQAHGYFCQLIDGLEYLHSQGIVHKDIKPGNLLLTTGGTLKISDLGVAEALHPFAADDTCRTSQGSPAFQPPEIANGLDTFSGFKVDIWSAGVTLYNITTGLYPFEGDNIYKLFENIGKGSYAIPGDCGPPLSDLLKGMLEYEPAKRFSIRQIRQHSWFRKKHPPAEAPVPIPPSPDTKDRWRSMTVVPYLEDLHGADEDEDLFDIEDDIIYTQDFTVPGQVPEEEASHNPQRRGLPKAVCMNGTEAAQLSTKSRAEGRAPNPARKACSASSKIRRLSACKQQ [G381P], the STK11 functional score came out at 1.61 ± 0.28. For MEVVDPQQLGMFTEGELMSVGMDTFIHRIDSTEVIYQPRRKRAKLIGKYLMGDLLGEGSYGKVKEVLDSETLCRRAVKILKKKKLRRIPNGEANVKKEIQLLRRLRHKNVIQLVDVLYNEEKQKMYMVMEYCVCGMQEMLDSVPEKRFPVCQAHGYFCQLIDGLEYLHSQGIVHKDIKPGNLLLTTGGTLKISDLGVAEALHPFAADDTCRTSQGSPAFQPPEIANGLDTFSGFKVDIWSAGVTLYNITTGLYPFEGDNIYKLFENIGKGSYAIPGDCGPPLSDLLKGMLEYEPAKRFSIRQIRQHSWFRKKHPPAEAPVPIPPSPDTKDRWRSMTVVPYLEDLHGADEDEDLFDIEDDIIYTQDFTVPGQVPEEEASHNRQRRGLPKAVCMNGTEAAQLSTKSRAEGRAPNPARKACSASSKIRRLSACKQQ [G381R] the value was 1.48 ± 0.16. Next, MEVVDPQQLGMFTEGELMSVGMDTFIHRIDSTEVIYQPRRKRAKLIGKYLMGDLLGEGSYGKVKEVLDSETLCRRAVKILKKKKLRRIPNGEANVKKEIQLLRRLRHKNVIQLVDVLYNEEKQKMYMVMEYCVCGMQEMLDSVPEKRFPVCQAHGYFCQLIDGLEYLHSQGIVHKDIKPGNLLLTTGGTLKISDLGVAEALHPFAADDTCRTSQGSPAFQPPEIANGLDTFSGFKVDIWSAGVTLYNITTGLYPFEGDNIYKLFENIGKGSYAIPGDCGPPLSDLLKGMLEYEPAKRFSIRQIRQHSWFRKKHPPAEAPVPIPPSPDTKDRWRSMTVVPYLEDLHGADEDEDLFDIEDDIIYTQDFTVPGQVPEEEASHNYQRRGLPKAVCMNGTEAAQLSTKSRAEGRAPNPARKACSASSKIRRLSACKQQ [G381Y]: 1.37 ± 0.36.

In the case of MEVVDPQQLGMFTEGELMSVGMDTFIHRIDSTEVIYQPRRKRAKLIGKYLMGDLLGEGSYGKVKEVLDSETLCRRAVKILKKKKLRRIPNGEANVKKEIQLLRRLRHKNVIQLVDVLYNEEKQKMYMVMEYCVCGMQEMLDSVPEKRFPVCQAHGYFCQLIDGLEYLHSQGIVHKDIKPGNLLLTTGGTLKISDLGVAEALHPFAADDTCRTSQGSPAFQPPEIANGLDTFSGFKVDIWSAGVTLYNITTGLYPFEGDNIYKLFENIGKGSYAIPGDCGPPLSDLLKGMLEYEPAKRFSIRQIRQHSWFRKKHPPAEAPVPIPPSPDTKDRWRSMTVVPYLEDLHGADEDEDLFDIEDDIIYTQDFTVPGQVPEEEASHNSQRRGLPKAVCMNGTEAAQLSTKSRAEGRAPNPARKACSASSKIRRLSACKQQ [G381S], the STK11 functional score was 1.36 ± 0.28.

For the variant MEVVDPQQLGMFTEGELMSVGMDTFIHRIDSTEVIYQPRRKRAKLIGKYLMGDLLGEGSYGKVKEVLDSETLCRRAVKILKKKKLRRIPNGEANVKKEIQLLRRLRHKNVIQLVDVLYNEEKQKMYMVMEYCVCGMQEMLDSVPEKRFPVCQAHGYFCQLIDGLEYLHSQGIVHKDIKPGNLLLTTGGTLKISDLGVAEALHPFAADDTCRTSQGSPAFQPPEIANGLDTFSGFKVDIWSAGVTLYNITTGLYPFEGDNIYKLFENIGKGSYAIPGDCGPPLSDLLKGMLEYEPAKRFSIRQIRQHSWFRKKHPPAEAPVPIPPSPDTKDRWRSMTVVPYLEDLHGADEDEDLFDIEDDIIYTQDFTVPGQVPEEEASHNKQRRGLPKAVCMNGTEAAQLSTKSRAEGRAPNPARKACSASSKIRRLSACKQQ [G381K], the STK11 functional score is 1.59 ± 0.29. As for MEVVDPQQLGMFTEGELMSVGMDTFIHRIDSTEVIYQPRRKRAKLIGKYLMGDLLGEGSYGKVKEVLDSETLCRRAVKILKKKKLRRIPNGEANVKKEIQLLRRLRHKNVIQLVDVLYNEEKQKMYMVMEYCVCGMQEMLDSVPEKRFPVCQAHGYFCQLIDGLEYLHSQGIVHKDIKPGNLLLTTGGTLKISDLGVAEALHPFAADDTCRTSQGSPAFQPPEIANGLDTFSGFKVDIWSAGVTLYNITTGLYPFEGDNIYKLFENIGKGSYAIPGDCGPPLSDLLKGMLEYEPAKRFSIRQIRQHSWFRKKHPPAEAPVPIPPSPDTKDRWRSMTVVPYLEDLHGADEDEDLFDIEDDIIYTQDFTVPGQVPEEEASHNTQRRGLPKAVCMNGTEAAQLSTKSRAEGRAPNPARKACSASSKIRRLSACKQQ [G381T], the STK11 functional score amounted to 1.6 ± 0.27.

As for MEVVDPQQLGMFTEGELMSVGMDTFIHRIDSTEVIYQPRRKRAKLIGKYLMGDLLGEGSYGKVKEVLDSETLCRRAVKILKKKKLRRIPNGEANVKKEIQLLRRLRHKNVIQLVDVLYNEEKQKMYMVMEYCVCGMQEMLDSVPEKRFPVCQAHGYFCQLIDGLEYLHSQGIVHKDIKPGNLLLTTGGTLKISDLGVAEALHPFAADDTCRTSQGSPAFQPPEIANGLDTFSGFKVDIWSAGVTLYNITTGLYPFEGDNIYKLFENIGKGSYAIPGDCGPPLSDLLKGMLEYEPAKRFSIRQIRQHSWFRKKHPPAEAPVPIPPSPDTKDRWRSMTVVPYLEDLHGADEDEDLFDIEDDIIYTQDFTVPGQVPEEEASHNVQRRGLPKAVCMNGTEAAQLSTKSRAEGRAPNPARKACSASSKIRRLSACKQQ [G381V], the STK11 functional score was 0.684 ± 0.15. As for MEVVDPQQLGMFTEGELMSVGMDTFIHRIDSTEVIYQPRRKRAKLIGKYLMGDLLGEGSYGKVKEVLDSETLCRRAVKILKKKKLRRIPNGEANVKKEIQLLRRLRHKNVIQLVDVLYNEEKQKMYMVMEYCVCGMQEMLDSVPEKRFPVCQAHGYFCQLIDGLEYLHSQGIVHKDIKPGNLLLTTGGTLKISDLGVAEALHPFAADDTCRTSQGSPAFQPPEIANGLDTFSGFKVDIWSAGVTLYNITTGLYPFEGDNIYKLFENIGKGSYAIPGDCGPPLSDLLKGMLEYEPAKRFSIRQIRQHSWFRKKHPPAEAPVPIPPSPDTKDRWRSMTVVPYLEDLHGADEDEDLFDIEDDIIYTQDFTVPGQVPEEEASHNMQRRGLPKAVCMNGTEAAQLSTKSRAEGRAPNPARKACSASSKIRRLSACKQQ [G381M], the STK11 functional score worked out at 1.57 ± 0.29.

As for MEVVDPQQLGMFTEGELMSVGMDTFIHRIDSTEVIYQPRRKRAKLIGKYLMGDLLGEGSYGKVKEVLDSETLCRRAVKILKKKKLRRIPNGEANVKKEIQLLRRLRHKNVIQLVDVLYNEEKQKMYMVMEYCVCGMQEMLDSVPEKRFPVCQAHGYFCQLIDGLEYLHSQGIVHKDIKPGNLLLTTGGTLKISDLGVAEALHPFAADDTCRTSQGSPAFQPPEIANGLDTFSGFKVDIWSAGVTLYNITTGLYPFEGDNIYKLFENIGKGSYAIPGDCGPPLSDLLKGMLEYEPAKRFSIRQIRQHSWFRKKHPPAEAPVPIPPSPDTKDRWRSMTVVPYLEDLHGADEDEDLFDIEDDIIYTQDFTVPGQVPEEEASHNIQRRGLPKAVCMNGTEAAQLSTKSRAEGRAPNPARKACSASSKIRRLSACKQQ [G381I], the STK11 functional score was 1.57 ± 0.22. For MEVVDPQQLGMFTEGELMSVGMDTFIHRIDSTEVIYQPRRKRAKLIGKYLMGDLLGEGSYGKVKEVLDSETLCRRAVKILKKKKLRRIPNGEANVKKEIQLLRRLRHKNVIQLVDVLYNEEKQKMYMVMEYCVCGMQEMLDSVPEKRFPVCQAHGYFCQLIDGLEYLHSQGIVHKDIKPGNLLLTTGGTLKISDLGVAEALHPFAADDTCRTSQGSPAFQPPEIANGLDTFSGFKVDIWSAGVTLYNITTGLYPFEGDNIYKLFENIGKGSYAIPGDCGPPLSDLLKGMLEYEPAKRFSIRQIRQHSWFRKKHPPAEAPVPIPPSPDTKDRWRSMTVVPYLEDLHGADEDEDLFDIEDDIIYTQDFTVPGQVPEEEASHNHQRRGLPKAVCMNGTEAAQLSTKSRAEGRAPNPARKACSASSKIRRLSACKQQ [G381H] the value was 1.6 ± 0.29.
